In patent US20210032308A1 (published 2021):

Molecular target: T1, recombinant human CD2 (biotinylated) (human, UniProt P06729 25-209, biotinylated (site not stated))
T1 construct: also called hCD2-biotin; human recombinant CD2
T1 sequence: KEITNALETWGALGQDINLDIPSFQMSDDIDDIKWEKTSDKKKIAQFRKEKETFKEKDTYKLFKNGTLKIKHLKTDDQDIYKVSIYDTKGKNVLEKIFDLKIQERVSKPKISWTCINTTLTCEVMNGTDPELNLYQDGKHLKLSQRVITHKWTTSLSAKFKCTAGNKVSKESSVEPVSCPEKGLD
Test: flow cytometry on LFA3-displaying yeast

B1: N-terminal Ig-domain of human LFA3 (Residues 1-93) displayed on the surface of S. cerevisiae (ligand, not shown: small tags and cut ends; large carriers)
chain: FSQQIYGVVYGNVTFHVPSNVPLKEVLWKKQKDKVAELENSEFRAFSSFKNRVYLDTVSGSLTIYNLTSSDEDEYEMESPNITDTMKFFLYVL
**Q.** Does B1 bind?
**A.** Result: binds
